{"source": "the DeepSol protein solubility set"}
{"experiment": "soluble on expression in E. coli; label from the status in PepcDB or PDB records"}
{"sequence": "MNMSSEMLPASIESPNVEEKLGTSDGEEERQEPRVDAGAEPISKRQLKKLMKQKQWEEQREQRKEKRKEKRKRKKLERRQLESNSDGNDRKRVRRDVARSSLRLVIDCSFDDLMVLKDIKKLHKQIQRCYAENRRASHPVQFYLTSHGGQLKKNMDENDQGWVNWKDIHIKSEHYSELIKKEDLVYLTSDSPNVLKDLDESKAYVIGGLVDHSHHKGLTFKQATSYGIEHAQLPLADFVKMNSRKVLAVNHVFEIILEFLETRDWQEAFFTILPQRKGAVPAHKACESSPQDHQSLPEGWDSASEGESCRDNPDSPQKDEQGQQSSPVLQ", "soluble on expression in E. coli": "soluble"}
{"sequence": "MSLHINQLLQHANSDLPLLQANFGLERESLRINKTNHRLAQTPHPTALGSRQFHPYIQTDYSESQMELITPVAHSSKEVLRFLGAITDVAERSIDQNQYLWPLSMPPQITEDEIEIAQLEDDFEFSYRQYLDKKYGKILQSISGIHYNMELGADLMNELFELSGYQSFIDFKNDLYLKVAQNFLNYRWFLTYLYGASPLAEKGFLNEELSQTVRSIRNSHLGYVNTDDIKVPFDSLENYISSIEHYVKSGALSAEKEFYSAVRLRGSKHNRDYLTKGITYLEFRCFDLNPFNNRGITQETIDSVHLFILAMLWLDTPKKLNQALDKAQKLNDKIALSHPLEKLPKENSASLIIEAMEALIKHFKLPSYYDDLLIAIKKQVENPKLTLSGRLFEHIKHASLEHFGQKKGQDYHNYAWQNYYALKGYENMELSTQMLLFDTIQKGIHFEILDENDQFLKLWHNDHIEYVKNGNMTSKDNYVIPLAMANKVVTKKILRENGYPVPAGAEFDNKDEALRYYSQIKNKPIVVKPKTTNFGLGISIFETAASHNDYEKALDIAFIEDYSVLVEEFIPGTEYRFFILDGKCEAVLLRVAANVVGDGHSTVRQLVAQKNRDPLRGREHRSPLEIIDLGDIELLMLQQEGYTLEDILPKGKKVNLRGNSNISTGGDSIDVTETMDPSYKQLAANMATAMGAWVCGVDLIIPDTNLKASKGKPNCTCIELNFNPSMYMHTYCYQGPGQVITGKILAKLFPEISTKIEGHHHHHH", "soluble on expression in E. coli": "soluble"}
{"sequence": "MAAAAELSLLEKSLGLSKGNKYSAQGERQIPVLQTNNGPSLMGLTTIAAHLVKQANKEYLLGSTAEEKAMVQQWLEYRVTQVDGHSSKNDIHTLLMDLNSYLEDKVYLTGYNFTLADILLYYGLHRFIVDLTVQEKEKYLNVSRWFCHIQHYPGIRQHLSSVVFIKNRLYTNSH", "soluble on expression in E. coli": "soluble"}
{"sequence": "MGSDKIHHHHHHMCRWAAYIGPPVHLDEVVCKPEHSLVAQSVHAFECKTQTNADGFGIAWYDSREEPGLYRDTHPAWSDPNLKSITHQVRSGLFLAHVRASTGTATSRNNCHPFTHGCWSFMHNGQVGGFENFRRRADMIIPDELYSARKGATDSEALFLIAIAEGLYEDPKGAMQRAVGRLEALSREFGHTPHMRIGAAFSCGGALYAVRYASDHLAPTVYSSKSADGTGRLVVSEPLHKGECWEAVPAGSFCRFTADDTEIEDFVPQF", "soluble on expression in E. coli": "not soluble"}
{"sequence": "MTSVSGCGSVSLITNRSAFLGNGLQHRAVFLKPWSSSSLQSRSMVVEAKTKTSSEDRIARHSRIRKKVNGTTERPRLCVFRSNKHLYVQVIDDTKMHTLASASTKQKPISEEFDYTSGPTIEVAKKVGEVIAKSCLEKGITKVAFDRGGYPYHGRIEALAAAAREHGLQF", "soluble on expression in E. coli": "not soluble"}
{"sequence": "MFNVDGECVVFTSGGTESNNWVIEGTIRNAKKVSKLPHIITTNIEHPSILEPLKRREEDGEISVTYVSINPLTGFVTSQSILDALTSDTCLVTIMLANNDTGVLQPVSEIFQAIREKLKTNVPFLHSDVAQAAGKIPVNVRSLSADAVTVVGHKFYGPRSGALIFNPKSKRIPPMLLGGNQESGWRSGTENTPMIVGLGEAAKVYNEGFLNIESILRQNRDYFEELLLKRLRNSHIIHFIGSQRLPNTSSVAFLDYPSHGCDLLEKCQTFNASTGAACHKNECSPILKACGIPFAVASKTVRISFGRSTKIAEIETVVDELVQLCSPS", "soluble on expression in E. coli": "not soluble"}
{"sequence": "MKYLPQQDPQVFAAIEQERKRQHAKIELIASENFVSRAVMEAQGSVLTNKYAQGYPGRRYYGGCEYVDIVEELARERAKQLFGAEHANVQPHSGAQANMAVYFTVLEHGDTVLGMNLSHGGHLTHGSPVNFSGVQYNFVAYGVDPETHVIDYDDVREKARLHRPKLIVAAASAYPRIIDFAKFREIADEVGAYLMVDMAHIAGLVAAGLHPNPVPYAHFVTTTTHKTLRGPRGGMILCQEQFAKQIDKAIFPGIQGGPLMHVIAAKAVAFGEALQDDFKAYAKRVVDNAKRLASALQNEGFTLVSGGTDNHLLLVDLRPQQLTGKTAEKVLDEVGITVNKNTIPYDPESPFVTSGIRIGTAAVTTRGFGLEEMDEIAAIIGLVLKNVGSEQALEEARQRVAALTDGG", "soluble on expression in E. coli": "soluble"}
{"sequence": "MVESNKTAADTYSLAIFRAIRRLQQAAEIHSKRLSRYGGLTPLQLLILHVLAVEGELTATQLAKLVSLSQASLSGVLDRLEGRGLLYRRRDEQDRRKSWLHLDPAGHEALAEAPPLLPEYVIERFAALPEWERHGLLAALLRAADLFGLPEEDVEEE", "soluble on expression in E. coli": "not soluble"}
{"sequence": "MGSSHHHHHHSQDPDPMQSFADAKEFFQYSAGQWQSRRVTHHLPFRRAESGGSNIQVETLEKDDPRIIEICQMHDMDASLSVGGSYVTWAGTMQWDKDDENHEGSTVFALIPDADNPRQGKLLRERGYAEIVPVAGEYHLDHEDGLVLTTEYETMTIYERFWFANPDLRLRTSTVKRFGGFNTTTFCMEERIQTSPVTATAAAETNPLYAISGW", "soluble on expression in E. coli": "soluble"}
{"sequence": "MAGDKGGGDGERRLRQPIVVVLGHVDHGKTTLLDKIRRTAVAAKEAGGITQHIGASIVPADVIEKIAEPLKKVIPVKLVIPGLLFIDTPGHELFSNLRRRGGSVADFAILVVDIMEGFKPQTYEALELLKERRVPFLIAANKIDRIPGWKPNPDAPFIETIRRQDPKVREILEQRVYEIVGKMYEAGLPAELFTRIKDFRRKIAIVPVSARTGEGIPELLAVLAGLTQTYLKERLRYAEGPAKGVVLEVKEMQGFGTVVDAVIYDGVLKKEDIIVVGGREGPIVTRVRALLMPAPLQDIRSREARFVQVDRVYAAAGVRIAAPGLDDVIAGSPIYAAESEEEARKLMEAVQREIEELRFRTENIGVVVKADTLGTLEALVEALRRRGVPVRLADIGPVSRSDVLDAAVTRKIDPYLGVVLAFNVKVLPEAEEEASRAGVKIFRESMIYKLIEDYEEWVKKEKEAERLKALNSLIRPGKFRILPGYVFRRSDPAIVGVEVLGGVIRPGYPVMDSQGRELGRIMAIKDRDRSLEEARLGAAVAVSIQGRILIGRHANEGDILYTNVPAQHAYKILTEFKDLVSKDELDVLREIAEIKRRAADHEYNKVLLRLKIKRVSQ", "soluble on expression in E. coli": "soluble"}
{"sequence": "MKPEDFRTDNKRPLTGEEYLKSLQDGREIYIYGERVKDVTTHPAFRNAAASVAQLYDALHKPSMQDTLCWNTDTGSGGYTHKFFRVAKSADDLRQQRDAIAEWSRLSYGWMGRTPDYKAAFGCALGANPAFYGQFEQNARNWYTRIQETGLYFNHAIVNPPIDRHKPADEVKDVYIKLEKETDAGIIVSGAKVVATNSALTHYNMIGFGSAQVMGENPDFALMFVAPMDAEGVKLISRASYEMVAGATGSPFDYPLSSRFDENDAILVMDKVLIPWENVLIYRDFDRCRRWTMEGGFARMYPLQACVRLAVKLDFITALLKKSLECTGTVEFRGVQADLGEVVAWRNMFWALSDSMCSEATPWVNGAWLPDHAALQTYRVMAPMAYAKIKNIIERNVTSGLIYLPSSARDLNNPQIDQYLAKYVRGSNGMDHVERIKILKLMWDAIGSEFGGRHELYEINYSGSQDEIRLQCLRQAQSSGNMDKMMAMVDRCLSEYDQNGWTVSHLHNNDDINQLDKLLK", "soluble on expression in E. coli": "not soluble"}
{"sequence": "GSHMSRILAVHASPRGERSQSRRLAEVFLAAYREAHPQARVARREVGRVPLPAVTEAFVAAAFHPQPEQRSLAMQADLALSDQLVGELFDSDLLVISTPMYNFSVPSGLKAWIDQIVRLGVTFDFVLDNGVAQYRPLLRGKRALIVTSRGGHGFGPGGENQAMNHADPWLRTALGFIGIDEVTVVAAEGEESGGRSFEDSCDEAEQRLLALARSA", "soluble on expression in E. coli": "soluble"}
{"sequence": "SENWDLSSDEMQDGNAPELDVIEEHNPVTRDDENANPEEVVGDTRSPVQNILGKFEGDINKRLHIKRKRMETYIKDSFKDSNVKLEQLWKTNKQERKKINNKFCEQYITTFQKFDMDVQKFNEEQEKSVNNYQKEQQALKLSKCSQSQTLEAIKDMHENYMEGLMNLETNNYNMLFDVDGELRKEMSVFKKDLMKHTLKYSSSFPSSD", "soluble on expression in E. coli": "not soluble"}
